First the molecules themselves.
T1: XCL (XCLtag), Xerocomus chrysenteron lectin (Xerocomellus chrysenteron, UniProt Q8WZC9)
T1 construct: recombinant, E. coli BL21(DE3); homotetramer
T1 sequence (Q8WZC9 1-143): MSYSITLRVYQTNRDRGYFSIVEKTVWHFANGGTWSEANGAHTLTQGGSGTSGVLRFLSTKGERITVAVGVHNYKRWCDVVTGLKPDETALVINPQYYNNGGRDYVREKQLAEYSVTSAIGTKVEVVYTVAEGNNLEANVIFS

B1: Xerocomus chrysenteron lectin with histidine tag and TEV site (natural protein, UniProt Q8WZC9 1-143, looked up)
chain: T1 sequence (Q8WZC9 1-143)
notes: lectin from the mushroom Xerocomus chrysenteron (XCL); expressed as a fusion of histidine tag, TEV site and XCL; The fits used the monomer concentration; also called XCL; XCLtag
B2: fetuin from fetal bovine serum (natural protein, UniProt P12763 19-359, looked up)
chain: IPLDPVAGYKEPACDDPDTEQAALAAVDYINKHLPRGYKHTLNQIDSVKVWPRRPTGEVYDIEIDTLETTCHVLDPTPLANCSVRQQTQHAVEGDCDIHVLKQDGQFSVLFTKCDSSPDSAEDVRKLCPDCPLLAPLNDSRVVHAVEVALATFNAESNGSYLQLVEISRAQFVPLPVSVSVEFAVAATDCIAKEVVDPTKCNLLAEKQYGFCKGSVIQKALGGEDVRVTCTLFQTQPVIPQPQPDGAEAEAPSAVPDAAGPTPSAAGPPVASVVVGPSVVAVPLPLHRAHYDLRHTFSGVASVESSSGEAFHVGKTPIVGQPSIPGGPVRLCPGRIRYFKI
modifications: three carbohydrate units O-linked to Thr or Ser residues and three complex glycans N-linked to Asn residues (a fourth O-linked residue may exist); exposed Gal residues linked to sialic acid residues
notes: fetuin (fetuin-A, alpha-2-HS-glycoprotein), bovine, from fetal bovine serum; glycoprotein bearing the Thomsen-Friedenreich antigen motif; also called native fetuin; source: bought: Sigma (from fetal bovine serum)
B3: asialofetuin from fetal bovine serum (natural protein, UniProt P12763 19-359, looked up)
chain: B2 chain
modifications: O-linked and N-linked glycans as in fetuin, but the sialic acid residues are absent
notes: fetuin (fetuin-A, alpha-2-HS-glycoprotein), bovine, from fetal bovine serum, without sialic acids (asialofetuin); Same polypeptide as fetuin; it differs only in lacking sialic acid on the glycans; source: bought: Sigma (from fetal bovine serum)

In assay [1] the target is T1, XCL (XCLtag), Xerocomus chrysenteron lectin. The assay can be described thus: isothermal titration calorimetry. Conditions: 25 mM sodium phosphate pH 7, 27°C. The format is binding. On the technique in general: Isothermal titration calorimetry measures the heat released or taken up as one component is titrated into another.
The target of assay [2] is B2. Put plainly: ITC; 2 mM fetuin or asialofetuin titrated (38 injections of 5 ul) into 0.25 mM XCLtag in the cell; 27°C; 25 mM Na2HPO4/NaH2PO4, pH 7; XCL monomer concentration used in the fit. Particulars: both partners purified.
Assay [3] deals with B3. The assay is described as above. Particulars: both partners purified.
Assay [4] has as its target B1. The description is as above. Conditions: both partners purified.
The target in assay [5] is B1. The description is as above. Conditions: both partners purified. The source holds these as a separate data set.

As for `CC(=O)N[C@H]1C(O)O[C@H](CO)[C@H](O)[C@@H]1O` (some centres unmarked) [N-acetylgalactosamine], the “Ka, M^-1” value in assay [1] (no PEG, per monomer, abstract prints Kd 5.2 μM, inconsistent with this Ka (reciprocal 5.2 mM)) was found to be 192 ± 5. For the molecule `CC(=O)N[C@H]1C(O)O[C@H](CO)[C@@H](O[C@@H]2O[C@H](CO)[C@H](O)[C@H](O)[C@H]2O)[C@@H]1O` (some centres unmarked) [N-acetyllactosamine], in assay [1] (significant fitting errors stated for Ka below 100 M^-1, read-out: affinity constant (converted)), the Kd was about 20 mM. Consider B1, for which the Ka was found to be 590000 ± 1.4 M⁻¹ in assay [2] and 2.59e+06 ± 0.6 M⁻¹ in assay [3]. In turn, B2 had a dH in assay [4] of -21.5 ± 0.5 kcal/mol. Further, the stoichiometry N – broadly, a count of units in the complex or per binding partner – in assay [5] stood at 0.23. Taken in the same sequence, the figures for B3 were -16.8 ± 2.5 kcal/mol and 0.23.

For the origin of these results see article PMC1166539, “Determination of thermodynamic parameters of Xerocomus chrysenteron lectin interactions with N-acetylgalactosamine and Thomsen-Friedenreich antigen by isothermal titration calorimetry” (BMC Biochemistry, 2005).
